Results: patent US20250289888A1

Columns and labels:
Assay in all cases: cell-based or functional assay
[1] = biological target: human FcγRIIa, R variant (human) (UniProt P12318)
mouse FcγRIV (mouse) = biological target: mouse FcγRIV (mouse)
mouse FcγRIII (mouse) = mouse FcγRIII (mouse) (UniProt P08508)
[2] = biological target: human FcγRIIa, H variant (human) (UniProt P12318)
human FcγRIIb (human) = human FcγRIIb (human) (UniProt P31994)
Chain of human FcγRIIb (human) (P31994 43-310): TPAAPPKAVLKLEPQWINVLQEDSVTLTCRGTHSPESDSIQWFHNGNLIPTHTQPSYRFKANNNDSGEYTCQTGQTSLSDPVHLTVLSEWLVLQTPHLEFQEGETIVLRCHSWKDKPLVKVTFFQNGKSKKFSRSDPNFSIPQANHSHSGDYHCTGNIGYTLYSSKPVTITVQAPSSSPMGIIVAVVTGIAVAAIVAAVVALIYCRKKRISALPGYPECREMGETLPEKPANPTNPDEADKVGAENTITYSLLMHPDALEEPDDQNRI

Chain of human FcγRIIa, R variant (human) (P12318 other isoform, or with tags, fused parts or gaps mutant limits assumed): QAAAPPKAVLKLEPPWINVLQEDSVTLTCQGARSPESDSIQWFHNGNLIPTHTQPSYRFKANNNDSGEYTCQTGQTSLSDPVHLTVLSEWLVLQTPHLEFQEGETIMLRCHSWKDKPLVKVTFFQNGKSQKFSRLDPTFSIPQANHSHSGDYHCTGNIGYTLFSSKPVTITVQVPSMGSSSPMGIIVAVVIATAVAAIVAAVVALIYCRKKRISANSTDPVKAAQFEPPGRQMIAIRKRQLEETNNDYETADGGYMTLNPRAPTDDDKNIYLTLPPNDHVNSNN
Chain of human FcγRIIa, H variant (human) (P12318 34-317, change not shown): as the sequence (P12318 other isoform, or with tags, fused parts or gaps mutant limits assumed) above, with R134H counted along it
Chain of mouse FcγRIV (mouse) (A0A0B4J1G0 21-203): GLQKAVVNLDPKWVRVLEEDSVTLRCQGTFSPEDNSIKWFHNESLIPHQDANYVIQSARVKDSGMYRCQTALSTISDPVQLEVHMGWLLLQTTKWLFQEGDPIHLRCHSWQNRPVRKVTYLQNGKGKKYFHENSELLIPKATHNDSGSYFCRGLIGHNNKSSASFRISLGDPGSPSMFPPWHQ
Chain of mouse FcγRIII (mouse) (P08508 31-261): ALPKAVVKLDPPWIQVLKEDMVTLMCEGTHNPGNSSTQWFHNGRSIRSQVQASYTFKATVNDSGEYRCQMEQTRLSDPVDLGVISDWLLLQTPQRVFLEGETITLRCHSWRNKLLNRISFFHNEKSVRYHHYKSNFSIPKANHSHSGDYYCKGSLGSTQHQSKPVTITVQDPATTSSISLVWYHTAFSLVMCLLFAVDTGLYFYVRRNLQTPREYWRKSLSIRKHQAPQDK

Ipilimumab (antibody) was tested. Which EC50 [1] did it give?
The EC50 was 0.21 µg/mL.

What about the Maximum luminescence (RLU) [1] of the same substance?
Its Maximum luminescence (RLU) is 2640 RLU.

And the EC50 (mouse FcγRIV (mouse))?
The EC50 was 2.21 µg/mL.

What about the Maximum luminescence (RLU) (mouse FcγRIV (mouse)) of the same substance?
Its Maximum luminescence (RLU) is 990 RLU.

What about the Maximum luminescence (RLU) (mouse FcγRIII (mouse)) of the same substance?
The Maximum luminescence (RLU) was 17500 RLU.

What about the EC50 [2] of the same substance?
The EC50 was 0.05 µg/mL.

What about the Maximum luminescence (RLU) [2] of the same substance?
The Maximum luminescence (RLU) was 973 RLU.

What about the EC50 (human FcγRIIb (human)) of the same substance?
Its EC50 is 0.17 µg/mL.

And the Maximum luminescence (RLU) (human FcγRIIb (human))?
Its Maximum luminescence (RLU) is 5800 RLU.
